Laboratory results: patent US8088412B2, “Intralymphatic chemotherapy drug carriers” (priority 2008, dated 2012)
Read-outs that look alike come from different tables or passages of the source. Marks after values point to notes of the source that are not given here.

Assays:
MCF7 = assay: In vitro cell toxicity (DMEM, resazurin blue, 72 hrs); assay type: cell-based, human
Procedure: (§1) Cell lines were seeded into 96-well plates (5000 cells/well) in DMEM medium supplemented with 5% FBS and 1% penicillin/streptomycin.

MDA-MB-231 = assay: as above; assay type: cell-based, human
Procedure: as §1

MDA-MB-468LN = assay: Cell proliferation over 72 hrs, resazurin blue; assay type: cell-based, human
Procedure: Preceding proliferation studies, cells were trypsinized and seeded into 96-well plates (5,000 cells/well). […] After 4 hrs, well fluorescence was measured (λex 560 nm, λem 590 nm) using a fluorophotometer (SpectraMax Gemini; Molecular Devices, Sunnyvale, Calif.). IC50 was determined as the midpoint between saline (positive) and cell-free (negative) controls for each plate.

[1] = Tissue distribution after subcutaneous cisplatin or cisplatin-HA into right mammary fat pad; assay type: in vivo, Sprague-Dawley rats
Procedure: Animals were allowed to recover with access to food and water. […] Organs and tissues were washed with 0.9% saline and frozen (−80° C.) until analysis. Plasma was separated by centrifugation from whole blood and frozen (−80° C.).
In vitro release samples (n=3) and plasma samples (n=5) were diluted 200-fold and 10-fold, respectively, with 0.1% nitric acid for analysis. […] Lymph nodes were processed similarly using 10 mg of tissue. After digestion, samples were homogenized (Tissue Tearor, BioSpec Products Inc., Bartlesville, Okla.). All samples were centrifuged (17 000×g, 20 min), and the supernate used for analysis.
Analysis was performed on a Varian SpectrAA GTA-110 with graphite furnace and partition tubes. Samples (21 μL) were injected using the autosampler, followed by 19 μL of 0.1% nitric acid. […] The furnace program was as follows: ramp 25 to 80° C., hold 2 s, ramp to 120° C., hold 10 s, ramp to 1000° C., hold 5 s, ramp to 2700° C., hold 2 s, cool to 25° C. over 20 s. The graphite partition tube was cleaned every 40 samples by baking at 2800° C. for 7 s. Argon was used as the injection and carrier gas.

[2] = system: MDA-MB-468LN human breast cancer cells; assay: Tumor response, breast lymphatic tumor xenograft; assay type: in vivo, Nude nu/nu mice
Procedure: Nude nu/nu mice were implanted with 1×10^6 cells (MDA-MB-468LN human breast cancer cells) into the mammary fatpad, after approximately 4 weeks a 100-200 mm^3 tumor had developed in the axillary lymph node package. Animals were randomly divided into four treatment groups of five animals each: intravenous saline, s.q. HA, intravenous cisplatin, or s.q. HA-cisplatin. At this point, doses were administered to the animals. In the HA-cisplatin and the HA groups, HA-cisplatin (3.3 mg/kg based on Pt-content) or HA (3.3 mg/kg) was dissolved in 100 mcL saline was injected subcutaneously peritumorally. […] In all study groups, a second dose was administered after 1 week. Tumor volumes were measured weekly using calipers and the formula: Volume=0.52×(width^2*length). Animals were euthanized when the tumor volume exceeded […] or the body score index fell below 2.

MDA-1986 cells = assay: In vivo efficacy of HA-cisplatin, orthotopic HNSCC model; parameters: species or system Nu/Nu female athymic nude mice; details: subcutaneous, weekly dose of 3.3 mg/kg for 3 weeks; 5 mice
From the text: The in vivo efficacy of HA-cisplatin was studied. All treatment began once animal HNSCC tumors reached 100 mm3 volume. Treatment commenced for 3 weeks. All animals were given 5×10^5 MDA-1986 cells in the buccal mucosa of the left cheek (which is a novel orthotopic HNSCC model I developed this year) and tumors develop in 2-3 weeks.

[3] = system: three aggressive human breast cancer cell lines; assay: Cell proliferation, Alamar blue assay, 72 hrs; assay type: cell-based; details: breast cancer cells in culture
Procedure: The 10% w/w conjugate was applied to cells, and 72 hrs later, cell proliferation was determined using the Alamar blue assay (Invitrogen Corp.). […] Similarly, cisplatin conjugates were applied to breast cancer cells in culture. […] This may be due release of anticancer drugs from nanocarriers into the culture media, followed by uptake as with free drug.

MDA-1986 = assay: MTS cell viability assay, 72 hours; assay type: cell-based, human; details: 10 nM to 100 micromolar
Procedure: (§2) To evaluate the anticancer, specifically antiproliferative, effects of HA-cisplatin compared to standard CDDP in vitro in two human head and neck squamous cell carcinoma cell lines (JMAR and MDA-1986) a standard MTS assay was performed as per the manufacturer's specified protocol.
(§3) Once 75% confluent, cells were trypsinized (0.25% trypsin), counted and plated in 96-well microtiter plates (Costar, Cambridge, Mass., USA) (1×10^3 cells/well) in 100 μL of growth media. After an overnight attachment period, cells were exposed to varying concentration of […] for 3 days. All studies were performed in triplicate and repeated at least three times independently. After the 3-d treatment period, the number of viable cells was determined using a colorimetric Cell Proliferation assay (CellTiter96 Aqueous Nonradioactive Cell Proliferation assay; Promega, Madison Wis., USA), which measures the bioreduction of the MTS (3-[4,5-dimethylthiazol-2yl]-5-[3-carboxymethoxyphenyl]-2-[4-sulfophenyl]-2H tetrazolium) by dehydrogenase enzymes of metabolically active cells into soluble formazon product, in the presence of the electron coupling reagent PMS (phenazine methosulfate). To perform the assay, 20 μL of combined MTS/PMS solution containing 2 mg/mL MTS and 150 μM PMS in buffer (0.2 g/L KCl, 8.0 g/L NaCl, 0.2 g/L KH2PO4, 1.15 g/L, […] CaCl2-2H2O, […], MgCl2.6H2O, pH 7.35) was added to each well and then after 3 hr of incubation at 37° C. in a humidified 5% CO2 atmosphere, absorbance was measured at 490 nm in microplate reader. Triplicate wells with predetermined cell numbers were subjected to the above assay in parallel with the test samples to normalize the absorbance readings; this also provided internal confirmation that the assay was linear over the range of absorbance and cell numbers measured. Data was plotted as a function of % viability from controls (cell viability) vs. drug concentration (x-axis).

JMAR = assay: MTS cell viability assay, 72 hours; assay type: cell-based, human; details: 10 nM to 100 micromolar
Procedure: as §2, §3

Question: With [PtCl(H2O)(NH3)2]OOCO-HA [HA-cisplatin] as the substance, how does the IC50 (MCF7; MCF-7, cisplatin basis) read?
Answer: 7 µg/mL

Question: And the IC50 (MCF7; MCF-7, read-out: IC50)?
Answer: 23 µM

Question: And the IC50 (MDA-MB-231; cisplatin basis)?
Answer: 7 µg/mL

Question: And the IC50 (MDA-MB-231; read-out: IC50)?
Answer: 23 µM

Question: And the IC50 (MDA-MB-468LN; HA carriers on a Pt-basis equivalent to cisplatin)?
Answer: 10 µg/mL

Question: And the IC50 (MDA-MB-468LN; Pt-basis, read-out: IC50)?
Answer: 33 µM

Question: What about the “AUC in the right (draining axillary) lymph node, greater than cisplatin in saline” value ([1]; 96 hrs, subcutaneous, p=0.0001) of the same substance?
Answer: 74%

Question: And the “AUC (0-96 hrs)” value ([1]; Bladder, subcutaneous into right mammary fatpad of female rats)?
Answer: 194.5 µg·h/g

Question: What about the “AUC (0-96 hrs)” value ([1]; Brain, subcutaneous into right mammary fatpad) of the same substance?
Answer: 343.7 µg·h/g

Question: What about the “AUC (0-96 hrs)” value ([1]; Heart, subcutaneous into right mammary fatpad) of the same substance?
Answer: 465.3 µg·h/g

Question: And the “AUC (0-96 hrs)” value ([1]; Kidneys, subcutaneous into right mammary fatpad)?
Answer: 668.6 µg·h/g

Question: What about the “AUC (0-96 hrs)” value ([1]; Left lymph node (LLN), subcutaneous into right mammary fatpad) of the same substance?
Answer: 413.4 µg·h/g

Question: What about the “AUC (0-96 hrs)” value ([1]; Liver, subcutaneous into right mammary fatpad) of the same substance?
Answer: 495.0 µg·h/g

Question: And the “AUC (0-96 hrs)” value ([1]; Lungs, subcutaneous into right mammary fatpad)?
Answer: 347.3 µg·h/g

Question: What about the “AUC (0-96 hrs)” value ([1]; Muscle, subcutaneous into right mammary fatpad) of the same substance?
Answer: 262.1 µg·h/g

Question: What about the “AUC (0-96 hrs)” value ([1]; Plasma, subcutaneous into right mammary fatpad) of the same substance?
Answer: 186.1 µg·h/g

Question: And the “AUC (0-96 hrs)” value ([1]; Right lymph node (RLN), subcutaneous into right mammary fatpad, p < 0.05)?
Answer: 776.0 ^† μg · hr/g

Question: What about the “AUC (0-96 hrs)” value ([1]; Spleen, subcutaneous into right mammary fatpad) of the same substance?
Answer: 383.4 µg·h/g

Question: And the “distribution of cisplatin to other organs vs cisplatin” value ([1]; over the study period)?
Answer: not significantly different over the study period

Question: What about the “AUC in the non-draining left lymph node (LLN) vs cisplatin in saline” value ([1]; p=0.12) of the same substance?
Answer: not significantly different from cisplatin in saline

Question: And the “plasma AUC, difference between cisplatin-HA and cisplatin” value ([1]; p=0.13)?
Answer: not a significant difference

Question: What about the “serum Cmax” value ([1]; subcutaneous, 3.3 mg/kg cisplatin basis, FIG. 10B) of the same substance?
Answer: less than 3 micrograms/mL

Question: What about the tolerability in rodents ([1]; subcutaneous, after 96 hours) of the same substance?
Answer: well tolerated in rodents with no signs of injection site morbidity or major organ toxicity after 96 hours

Question: What about the “tumor growth delay compared to negative control group” value ([2]; 3.3 mg/kg (Pt) subcutaneously peritumorally, second dose after 1 week) of the same substance?
Answer: 5 weeks

Question: What about the “toxicity in treated tumor-bearing animals” value ([2]; 3.3 mg/kg subcutaneously peritumorally, two doses) of the same substance?
Answer: no toxicity was observed

Question: What about the response to therapy (MDA-1986 cells) of the same substance?
Answer: 2 animals had a complete response to therapy and the third (HA-cis 1) had a partial response to therapy

Question: What about the tumor growth delay (MDA-1986 cells) of the same substance?
Answer: delayed tumor growth in all 5 animals

Question: What about the “anticancer activity compared with free cisplatin” value [3] of the same substance?
Answer: not significantly different from free cisplatin

Question: And the “IC50 level compared with CDDP” value (MDA-1986)?
Answer: no significant difference

Question: And the “IC50 level compared with CDDP” value (MDA-1986; listed as HA-Cisplatin)?
Answer: very similar

Question: What about the “IC50 level compared with CDDP” value (JMAR) of the same substance?
Answer: no significant difference

Question: And the “IC50 level compared with CDDP” value (JMAR; listed as HA-Cisplatin)?
Answer: very similar
